In patent US20040248211A1, “ICAM-related protein” (priority 1992, published 2004):

Assays:
PBMC = PBMC activation markers on immobilized antibody; type: cell-based, human; settings: immobilized antibody 10 μg/well; no other stimuli
Description: Anti-ICAM-R monoclonal antibodies ICR-1.1 and ICR-4.2 were each tested for the ability to induce PMBC activation in the absence of other inducing stimuli. Monoclonal antibodies ICR-1.1 or ICR-4.2 (or control monoclonal antibodies) were added (10 μg/well in PBS) to individual wells of a 96-well flat bottom tissue culture plate and incubated for 3 hours at 37° C. in a 5% CO2 incubator. The plates were washed 3 times with sterile PBS to remove unbound antibody and freshly isolated PBMC were immediately added to a final concentration of 2×10^5 cells/well in a volume of 200 μl media. The plates were then incubated for either 1 or 3 days at which time the cells cultured in the presence of different antibodies were removed, washed as described above in PBS containing 0.01% sodium azide and 1% BSA (FACS buffer) and stained with either FITC (Becton Dickinson)-conjugated negative control antibodies or a panel of FITC-conjugated anti-CD69, anti-transferrin receptor and anti-IL-2 receptor antibodies. Results were obtained by FACScan analysis. […] However, while increased expression of these lymphocyte activation markers was observed after 1 and 3 days this increased expression was unaccompanied by increased cell size.

ICAM-R peptides = assay: Multipin peptide ELISA; type: binding, human; settings: hybridoma supernatant
Description: The first method for mapping linear epitopes recognized by the ICAM-R specific antibodies of the invention utilized the Multipin Peptide Synthesis System (Chiron Mimotopes Pty. Ltd., Victoria, Australia) which places ten amino acid peptides representing overlapping segments of the protein of interest on the surface of a series of plastic pins. A modified ELISA test is performed to determine binding of a monoclonal antibody to each peptide.
The ELISA to determine binding of the monoclonal antibodies to ICAM-R peptides was run as follows. […] The pins were transferred to plates containing ABTS substrate solution [0.5 mg/ml ABTS, 0.01% weight/volume H2O2 in substrate buffer (17.9 g/L Na2HPO4H2O, 16.8 g/L citric acid monohydrate, pH 4.0)] for 45 minutes at 20° C. with agitation and then the plates were read at 410/495 nm.
Relative reactivity with individual pins was determined after normalizing results for differences in immunoglobulin concentrations in anti-ICAM-R and control hybridoma supernatants and reactivities of positive controls between assays. Mouse IgG levels for each supernatant had been determined by antibody capture ELISA as follows. […] Antibody concentrations of culture supernatant were determined by fitting measured optical densities to the standard curve of the isotype matched control.

[1] = molecular target: T1, Protein 3 (ICAM-R domains 1-3 fused to ICAM-1) (Homo sapiens, UniProt P05362+P32942, A326V/A340P/A352Q/A353P/D347N/D369N/D382A/E323K/E366P/E384Q/F374S/F385L/G339H/H327S/L386I/M337E/N363K/P354L/P357R/Q343K/Q356P/Q361L/Q393E/R388K/S322R/S330T/S335K/S367E/S390Q/S391T/T325E/T331E/V342A/V392R); assay: FACS binding to COS cell transfectants; settings: antibody 5.0 ug/ml
T1 construct: domains of ICAM-R (residues 1 to 291) fused to ICAM-1 (residues 317 to 532); ICAM-1 residues 317 to 532 (fusion partner in the same polypeptide); expressed in transfected cells; host or cells: COS cells, plasmid pcDNAAmp.RD1-3.1D4-5
Excerpt: FIG. 7 is a diagram of the chimeric proteins whose construction is outlined below. Protein number 1 contains the amino-terminal immunoglobulin-like domain of ICAM-R (residues 1 to 93) fused to ICAM-1 (residue 117 to 532). Protein number 2 contains the first two amino terminal immunoglobulin-like domains of ICAM-R (residues 1 to 190) fused to ICAM-1 (residues 216 to 532). Protein number 3 contains the first three immunoglobulin-like domains of ICAM-R (residues 1 to 291) fused to ICAM-1 (residues 317 to 532).
For the anti-ICAM-R monoclonal antibody binding assay, COS cells transfected with constructs encoding the ICAM-R chimeric proteins or control constructs were removed from the plates by EDTA treatment and aliquoted at 2.5×10^5 cells per well in a 96-well round bottom plate. Cells were washed 3 times with ice cold washing buffer (PBS containing 1% BSA and 0.05% sodium azide). Anti-ICAM-R monoclonal antibody was applied at 5.0 ug/ml in 50 ul final volume and incubated on ice for 30 minutes. Cells were then washed three times with cold washing buffer and incubated with the FITC labeled secondary antibody (sheep anti-mouse IgG F(ab′)2) at a 1:100 dilution on ice for 30 minutes in dark in 50 ul final volume. After the incubation, cells were washed again for three times in the ice cold washing buffer and resuspended in 200 ul of 1% paraformaldehyde. The samples were analyzed on a Becton-Dickinson FACScan instrument. Results of the assay are given below in Table 5 as percent positive COS cell transfectants, wherein MOPC 21 (IgG1) and UPC 10 (IgG2a) are isotype matched controls, 18E3D is an ICAM-1 specific monoclonal antibody and ICR-1.1 to ICR-9.2 are ICAM-R specific monoclonal antibodies. The reactivities of monoclonal antibodies ICR-1.1 through ICR-9.2 were assayed in a different experiment than monoclonal antibodies ICR-12.1 through ICR-17.1.

T1 sequence (P32942+P05362 fused with the stated changes): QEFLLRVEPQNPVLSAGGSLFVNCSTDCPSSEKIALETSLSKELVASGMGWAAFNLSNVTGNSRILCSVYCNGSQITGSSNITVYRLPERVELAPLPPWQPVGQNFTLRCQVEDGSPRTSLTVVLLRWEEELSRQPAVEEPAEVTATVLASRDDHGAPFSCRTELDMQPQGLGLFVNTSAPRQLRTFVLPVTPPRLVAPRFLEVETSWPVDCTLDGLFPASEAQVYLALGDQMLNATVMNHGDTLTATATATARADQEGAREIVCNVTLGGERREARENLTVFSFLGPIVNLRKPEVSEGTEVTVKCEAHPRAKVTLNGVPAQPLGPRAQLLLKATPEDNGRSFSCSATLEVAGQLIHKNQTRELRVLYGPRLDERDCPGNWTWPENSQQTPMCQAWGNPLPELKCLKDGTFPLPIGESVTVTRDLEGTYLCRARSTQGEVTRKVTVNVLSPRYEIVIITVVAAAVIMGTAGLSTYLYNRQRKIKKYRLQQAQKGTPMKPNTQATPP

B1: ICR-1.1: anti-ICAM-R monoclonal antibody, IgG2a, domain 1, ATCC HB 11053 (antibody, V domains shown)
VH: QVQLQQSGAELAKPGASVKMSCKASGYTFTVYWMHWVKQRPGQGLEWIGYINPNTDYTEYNQRFQDKATLTADKSSSTAYMQLSSLTSEDSAVYYCARWGGNSYGLDYWGQGTSVTVSS
VL: QIVLTQSPALMSASPGEKVTMTCSASSSVSYIYWYQQKPRSSPKPWIYLTSNLASGVPARFSGSGSGASYSLTISIMEAEDAATYYCQQWKSIPLTFGAGTKLELK
**Q.** For B1, which “PBMC activation marker expression after 1 day” value (PBMC) is on record?
**A.** Expression of CD69 and the transferrin receptor but not the IL-2 receptor increased

**Q.** What about the “PBMC activation marker expression after 3 days” value (PBMC) of the same molecule?
**A.** increased levels of cell surface expression of both the transferrin receptor and IL-2 receptor but not CD69

**Q.** And the “reactivity with overlapping ten amino acid ICAM-R peptides” value (ICAM-R peptides)?
**A.** two overlapping peptides spanning amino acids 13-23

**Q.** What about the “percent positive COS cell transfectants, Protein 3” value [1] of the same molecule?
**A.** 52.71%
